T1: recombinant extracellular domain protein of cynomolgus monkey DLL3 (cyno.DLL3-ECD-His) (cynomolgus monkey, UniProt A0A2K5WSR1 27-490)
T1 construct: extracellular domain; Commercial protein; not shown: His tag
T1 sequence: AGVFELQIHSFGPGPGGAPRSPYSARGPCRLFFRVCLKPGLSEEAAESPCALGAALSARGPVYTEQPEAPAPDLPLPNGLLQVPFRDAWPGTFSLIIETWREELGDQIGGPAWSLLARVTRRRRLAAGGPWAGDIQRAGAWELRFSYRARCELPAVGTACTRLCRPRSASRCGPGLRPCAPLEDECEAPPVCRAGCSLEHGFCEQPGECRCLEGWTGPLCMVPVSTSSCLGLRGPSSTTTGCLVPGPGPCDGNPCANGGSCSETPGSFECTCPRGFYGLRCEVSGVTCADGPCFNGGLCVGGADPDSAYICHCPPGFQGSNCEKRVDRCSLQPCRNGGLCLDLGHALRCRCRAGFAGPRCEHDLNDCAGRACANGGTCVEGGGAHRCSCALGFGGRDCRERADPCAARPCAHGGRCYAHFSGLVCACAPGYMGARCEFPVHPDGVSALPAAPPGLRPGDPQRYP

T2: recombinant extracellular domain protein of mouse DLL3 (Mouse DLL3-His) (mouse, UniProt O88516 33-490)
T2 construct: extracellular domain; Commercial protein; also called mDLL3; not shown: His tag
T2 sequence (looked up): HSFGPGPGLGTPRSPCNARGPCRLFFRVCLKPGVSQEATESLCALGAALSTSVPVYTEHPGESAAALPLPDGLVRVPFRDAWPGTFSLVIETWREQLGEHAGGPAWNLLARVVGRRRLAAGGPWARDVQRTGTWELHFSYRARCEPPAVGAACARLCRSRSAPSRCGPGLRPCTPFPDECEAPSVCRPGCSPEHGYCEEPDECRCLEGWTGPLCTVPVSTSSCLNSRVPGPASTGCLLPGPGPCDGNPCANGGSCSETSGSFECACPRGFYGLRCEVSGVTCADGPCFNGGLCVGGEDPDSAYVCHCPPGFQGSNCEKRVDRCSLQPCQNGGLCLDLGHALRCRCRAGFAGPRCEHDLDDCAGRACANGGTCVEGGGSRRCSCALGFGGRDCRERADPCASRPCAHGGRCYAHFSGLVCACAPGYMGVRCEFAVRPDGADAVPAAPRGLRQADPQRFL

T3: recombinant extracellular domain protein of rat DLL3 (Rat DLL3-His) (rat, UniProt O88671 33-494)
T3 construct: extracellular domain; Commercial protein; not shown: His tag
T3 sequence (looked up): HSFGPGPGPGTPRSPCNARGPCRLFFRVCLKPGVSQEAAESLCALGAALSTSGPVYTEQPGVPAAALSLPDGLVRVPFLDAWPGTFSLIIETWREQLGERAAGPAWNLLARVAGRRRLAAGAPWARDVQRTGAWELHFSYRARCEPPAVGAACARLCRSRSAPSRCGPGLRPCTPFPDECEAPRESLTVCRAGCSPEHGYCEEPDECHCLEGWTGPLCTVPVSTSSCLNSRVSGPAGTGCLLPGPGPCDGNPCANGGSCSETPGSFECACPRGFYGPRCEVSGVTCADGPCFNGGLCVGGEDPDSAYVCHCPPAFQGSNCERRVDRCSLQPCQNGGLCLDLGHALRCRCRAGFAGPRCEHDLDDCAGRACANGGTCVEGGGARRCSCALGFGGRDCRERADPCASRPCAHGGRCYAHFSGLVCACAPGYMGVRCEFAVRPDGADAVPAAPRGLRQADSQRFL

T4: recombinant extracellular domain protein of human DLL3 (h.DLL3-ECD-His) (human, UniProt Q9NYJ7 27-492)
T4 construct: extracellular domain; Commercial protein; also called human DLL3 antigen; not shown: His tag
T4 sequence (looked up): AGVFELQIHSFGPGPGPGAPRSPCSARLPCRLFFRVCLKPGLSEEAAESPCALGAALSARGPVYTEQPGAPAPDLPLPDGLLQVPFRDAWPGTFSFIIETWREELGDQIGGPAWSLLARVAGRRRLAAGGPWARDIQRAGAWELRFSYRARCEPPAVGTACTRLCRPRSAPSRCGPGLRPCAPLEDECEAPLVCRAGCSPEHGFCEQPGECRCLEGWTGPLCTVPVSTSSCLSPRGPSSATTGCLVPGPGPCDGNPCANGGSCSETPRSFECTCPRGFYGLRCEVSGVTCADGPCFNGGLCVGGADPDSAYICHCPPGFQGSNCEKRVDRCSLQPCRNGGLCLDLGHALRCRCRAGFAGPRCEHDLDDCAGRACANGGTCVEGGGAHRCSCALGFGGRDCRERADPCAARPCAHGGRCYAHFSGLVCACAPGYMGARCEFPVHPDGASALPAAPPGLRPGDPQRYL

T5: human DLL1 on 293T-hDLL1 cells (human, UniProt O00548 18-723)
T5 construct: whole, on cells; also called 293T-DLL1; HEK293T-hDLL1
T5 sequence (looked up): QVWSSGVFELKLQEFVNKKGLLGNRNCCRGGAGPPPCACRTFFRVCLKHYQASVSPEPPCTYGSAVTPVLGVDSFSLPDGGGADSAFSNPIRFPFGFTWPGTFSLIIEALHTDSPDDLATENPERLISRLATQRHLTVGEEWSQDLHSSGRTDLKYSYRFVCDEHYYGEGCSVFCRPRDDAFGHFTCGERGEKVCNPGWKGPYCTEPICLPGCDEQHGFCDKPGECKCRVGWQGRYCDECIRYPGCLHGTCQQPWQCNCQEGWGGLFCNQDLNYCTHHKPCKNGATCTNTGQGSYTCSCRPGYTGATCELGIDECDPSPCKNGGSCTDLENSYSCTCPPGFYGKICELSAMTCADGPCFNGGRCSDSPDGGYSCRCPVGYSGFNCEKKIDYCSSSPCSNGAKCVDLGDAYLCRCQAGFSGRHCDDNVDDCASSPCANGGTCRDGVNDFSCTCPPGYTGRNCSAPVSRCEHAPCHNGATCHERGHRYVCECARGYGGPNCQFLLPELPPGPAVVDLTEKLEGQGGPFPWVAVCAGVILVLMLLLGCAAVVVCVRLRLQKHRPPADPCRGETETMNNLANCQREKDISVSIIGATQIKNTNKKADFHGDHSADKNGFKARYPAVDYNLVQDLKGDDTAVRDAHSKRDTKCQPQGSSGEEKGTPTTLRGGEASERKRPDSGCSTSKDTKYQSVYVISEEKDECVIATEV

B1: 55C11E4-Hz2 (antibody, human IgG1, kappa, V domains shown)
VH: EVQLVQSGAEVKKPGASVKVSCKASGYTFTDYYMNWVRQAPGQRLEWMGVINPYNGGTNYAQKFQGRVTLTVDKSASTAYMELSSLRSEDTAVYYCARDSNYVGLLDYWGQGTLVTVSS
VL: DIVLTQSPATLSLSPGERATLSCRASQSISNNLHWYQQKPGQAPRLLIKYASQSISGIPARFSGSGSGPDFTLTISSLEPEDFAVYFCQQSNSWPYTFGQGTKVEIKR
notes: Optimized humanized IgG1/kappa; also called 55C11E4-Hz2-biotin
B2: murine antibody 6F11C10 (antibody, V domains shown)
VH: EVHLQQSGPVLVKPGPSVKISCKASGFTFTDYYMHWVKQSHGKSLEWIGLVYPYNGDISYNQKFKGKATLTVDTSSSTAYMELNSLTSEDSAVYYCARQGNYVNNAIDYWGQGTSVTVSS
VL: DIVMTQSQKFMSTSVGDRVSISCKASQNVGNIIAWYQQKPGQSPKALIYLASYRYSGVPDRFTGSGSGTDFTLTINNVQSEDLAEYFCQQYSDSPYTFGSGTKLEI
notes: Murine antibody purified from hybridoma supernatant
B3: 6F11C10-Hz2 antibody (antibody, human IgG1, kappa, V domains shown)
VH: EVQLVQSGAEVKKPGASVKVSCKASGFTFTDYYMHWVRQAPGQSLEWMGLVYPYSGDISYAQKFQGRVTLTVDTSISTAYMELSRLRSDDTAVYYCARQGNYVNNAIDYWGQGTLVTVSS
VL: DIQMTQSPSSLSASVGDRVTITCKASQNVGNIIAWYQQKPGKSPKALIYLASYRYSGVPSRFSGSGSGTDFTLTISSLQPEDVATYFCQQYSDSPYTFGQGTKVEIKR
notes: Optimized humanized IgG1/kappa; also called 6FC11C0-Hz2; 6F11C10-Hz2-biotin
B4: murine antibody 59B10D3 (antibody, V domains shown)
VH: EVKLEESGGGLVQPGGSMKLSCAASGFTFSDAWMDWVRQSPEKGLEWIAEIRNKANNHATYYTESVKGRFTISRDDSKSSVYLQMISLRPEDTGIYYCTRNNYGSTWTYYAMDYWGQGTSVTVSS
VL: DIQMTQTSSSLSASLGDRVTINCRASQDISNYLNWYQQKPDGTVKLLIYYTSRLHSGVPSRFSGSGSGTDYSLTISNLEHEDIATYFCQQGYTLPLTFGAGTNLELK
notes: as for B2
B5: murine antibody 55C11E4 (antibody, V domains shown)
VH: EVQLQQSGPVLVKPGASVKMSCKASGYTFTDYYMNWVKQSHGKSLEWIGVINPYNGGTNYSQKFKGKATLTVDKSSSTAYMELNSLTSEDSAVYYCARDSNYVGLLDYWGQGTSVTVSS
VL: DIVLTQSPATLSVTPGDSVSLSCRASQSISNNLHWYQQKSHESPRLLIKYASQSISGIPSRFSGSGSGPDFTLSIDSVETEDFGVYFCQQSNSWPYTFGGGTKLEIK
notes: as for B2
B6: murine antibody 87F7F10 (antibody, V domains shown)
VH: DVQLQESGPGLVKPSQSLSLTCSVTGYSITSDFYWNWIRQFPGNKLEWMGYITYDGSTNYDPSLKNRISITRDTSKNQFFLKLNSVTAEDTATYYCVYGDFNRHAMDYWGQGTSVTVSS
VL: DIVMSQSPSSLAVSAGEKVTMSCRSSQSLFNSRTRKNYLAWYQQKPGQPPKVLIYWASTRESGVPDRFTGSGSGTDFTLTISSVQAEDLAVYYCEQSFYLFTFGTGTKLEI
notes: as for B2

How the values were obtained:
[1] = biological target: canine canis DLL3-ECD-his antigen protein (canine); experiment: ELISA, coated Canis DLL3-his 0.2 µg/mL, antibody titrated
[2] = biological target: T1, recombinant extracellular domain …; experiment: ELISA, coated cyno.DLL3-ECD-his 0.2 µg/mL, antibody titrated
[3] = biological target: T2, recombinant extracellular domain …; experiment: ELISA, coated Mouse DLL3-His 0.2 µg/mL, antibody titrated
[4] = biological target: T3, recombinant extracellular domain …; experiment: ELISA, coated Rat DLL3-his 0.2 µg/mL, antibody titrated
[5] = biological target: T4, recombinant extracellular domain …; experiment: ELISA, coated h.DLL3-ECD-his 0.2 µg/mL, antibody titrated
[6] = biological target: T6, human DLL4 on 293T-hDLL4 cells (human, UniProt Q9NR61 27-685); experiment: flow cytometry on 293T-hDLL4 cells, antibody 20 µg/mL
T6 construct: whole, on cells; also called 293T-DLL4; HEK293T-hDLL4
T6 sequence (Q9NR61 27-685): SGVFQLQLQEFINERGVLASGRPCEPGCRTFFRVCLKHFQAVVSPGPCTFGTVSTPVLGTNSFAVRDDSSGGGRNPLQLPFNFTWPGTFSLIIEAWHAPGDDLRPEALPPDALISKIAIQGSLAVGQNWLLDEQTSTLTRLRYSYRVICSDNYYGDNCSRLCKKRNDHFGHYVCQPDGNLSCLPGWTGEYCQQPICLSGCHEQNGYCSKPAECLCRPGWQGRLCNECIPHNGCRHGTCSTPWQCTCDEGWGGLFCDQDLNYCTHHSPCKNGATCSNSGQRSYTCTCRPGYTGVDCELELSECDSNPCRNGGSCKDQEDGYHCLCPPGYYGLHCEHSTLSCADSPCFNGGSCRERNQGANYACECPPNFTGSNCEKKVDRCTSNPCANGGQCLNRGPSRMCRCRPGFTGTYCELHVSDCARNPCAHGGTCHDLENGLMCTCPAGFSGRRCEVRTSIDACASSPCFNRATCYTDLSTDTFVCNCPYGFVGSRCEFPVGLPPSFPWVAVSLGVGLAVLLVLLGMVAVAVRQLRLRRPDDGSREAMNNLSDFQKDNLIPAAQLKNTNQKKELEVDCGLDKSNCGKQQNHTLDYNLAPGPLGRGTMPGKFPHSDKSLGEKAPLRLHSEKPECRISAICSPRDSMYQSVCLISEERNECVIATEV

[7] = biological target: T4, recombinant extracellular domain …; experiment: ELISA, coated hDLL3-ECD-his, murine antibody titrated
[8] = biological target: T5, human DLL1 on 293T-hDLL1 cells; experiment: flow cytometry on 293T-hDLL1 cells, antibody 20 µg/mL
[9] = biological target: T1, recombinant extracellular domain …; experiment: ELISA, coated cynoDLL3-ECD-his, murine antibody titrated

| Binder | EC50 [1] [ng/mL] | EC50 [2] [ng/mL] | EC50 [3] [ng/mL] | EC50 [4] [ng/mL] | EC50 [5] [ng/mL] | positive rate [6] [%] | EC50 [7] [ng/mL] | positive rate [8] [%] | EC50 [9] [ng/mL] |
| --- | --- | --- | --- | --- | --- | --- | --- | --- | --- |
| B1 | 12.9 | 4.98 | 21.3 | 3.67 | 4.95 | – | – | – | – |
| B2 | – | – | – | – | – | 0.76 | 7.59 | 0.64 | 19.5 |
| B3 | 17.2 | 10.8 | 30.1 | 7.35 | 8.23 | – | – | – | – |
| B4 | – | – | – | – | – | 0.67 | 1.3 | 6.3 | 1.25 |
| B5 | – | – | – | – | – | 0.1 | 56.7 | 0.92 | 40.9 |
| B6 | – | – | – | – | – | 0.42 | 1.68 | 1.84 | 1.31 |

— patent US20260166168A1 (MEDILINK THERAPEUTICS SUZHOU, published 2026)
